Test results: patent publication US6790633

Biological target: rat brain farnesyl:protein transferase (rat) (UniProt Q04631)
Test: cell-based or functional assay

| Substance | fold decline in affinity for the enzyme | concentration required for inhibition | fold decrease in affinity for the enzyme against CVIM, as estimated by the concentration required for 50% inhibition | also measured |
| --- | --- | --- | --- | --- |
| CVIM with glutamic acid at the A2 position (peptide) | > 50 fold | – | – | – |
| CVIM with glutamic acid at the X position (peptide) | – | > 40 µM | – | – |
| CVIM with glycine at the A2 position (peptide) | – | – | – | concentration giving 50% inhibition: 8 µM |
| CVIM with glycine at the X position (peptide) | – | > 40 µM | – | – |
| CVIM with lysine at the A2 position (peptide) | > 50 fold | – | > 30 fold | – |
| CVIM with lysine at the X position (peptide) | – | > 40 µM | > 30 fold | – |
